Assay results from the supplement of paper PMC11865577.

Test system: TO-N3-2 (biotin conjugate)
Assay: pull-down binding Z-score (relative to library population); higher = stronger binding
Conditions: RNA library: Library-2
How it was run: (§1)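 Heat-folded RNA library (1 μg, Cy5 or Cy3 end label, phosphate/NaCl/KCl buffer) was captured for 60 min at 25 °C on streptavidin beads displaying 100 pmol of biotin-conjugated small molecule, then washed three times. The bound fraction, eluted in hot SDS, was hybridised to a DNA barcode microarray at 55.5 °C for 20 h. Z-scores for binding were taken against the library mean and standard deviation after beads-only subtraction and trimmed averaging of replicate barcoded probes.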

Point of comparison: “UUUUUCCAUUGUAAGUAAUGGGAAAA [hsa-mir-548f-5]”, “pull-down binding Z-score” value -1.67. Against it:
- UUUCUGUUGUCUGAAAGAAGAGAAA [hsa-mir-526b_518a-1] — higher, -0.584
- UUUCUGUUGUCUGAAAGCAGA [hsa-mir-515-1_515-2] — higher, -0.0707
- UUUCUUAAAUUUUAUAUAUUGGAA [hsa-mir-1284] — higher, -1.11
- UUUGCAUCUGGACGACGAAU [hsa-mir-409] — higher, 0.523
- UUUGCCAAUAAAAGUAAUGACAAA [hsa-mir-548ah] — higher, -0.39
- UUUGCCAGAGCUACAAAGGCAAA [hsa-mir-561] — higher, -0.512
- UUUGCCAUUAAAAGUAACGACAAA [hsa-mir-548a-1] — higher, -0.81
- UUUGCCAUUAAAAGUAAUGCGGCCAA [hsa-mir-548o-2] — higher, -0.13
- UUUGCCAUUAAAAGUAAUGGUAAA [hsa-mir-548x-2] — higher, -1.58
- UUUGCCAUUACUUUCAGUAGCAAA [hsa-mir-548c] — higher, -0.814
- UUUGCCAUUACUUUCAGUGGCAAA [hsa-mir-548aq] — higher, -1.11
- UUUGCCAUUAUAAUGGCAAA [hsa-mir-548ae-1] — lower, -1.71
- UUUGCCAUUGAAAGUAAUGGCAAA [hsa-mir-548d-2] — higher, -1.04
- UUUGCCGUCGAAAAUAAUGGCAAA [hsa-mir-548am] — higher, -0.502
- UUUGCCGUUAAAAGUAAUGGCA [hsa-mir-548a-2] — higher, -0.106
- UUUGCCGUUGCUUUUAAUGGUAAA [hsa-mir-548as] — higher, -1.31
- UUUGCCUAUAAAAGUAAUGGCAAA [hsa-mir-548an] — higher, -0.888
- UUUGCCUCUCUCAGAAAAUAGAGUCAAA [hsa-mir-4694] — higher, -0.759
- UUUGCCUGUAAAAGUAAUGGCAAA [hsa-mir-548d-1] — higher, -0.552
- UUUGCGUUACUUUCAAUCGUAAA [hsa-mir-548x] — higher, -1.46
- UUUGCUACUGAAAGUAAUGGCAAA [hsa-mir-548z] — higher, -0.632
- UUUGCUAUUACUUUUAAUGGUAAA [hsa-mir-548aj-2] — higher, -1.19
- UUUGCUAUUUUUUUUUAAUGGCAAA [hsa-mir-548ac] — higher, -1.46
- UUUGCUGUUGAACGUAGUGGUAA [hsa-mir-548ar] — higher, 0.387
- UUUGGCUGCCAAAAGAAAUGGCCAAA [hsa-mir-548at] — higher, -0.668
- UUUGGUAUUACUUUCAGUGGCAAA [hsa-mir-548j] — higher, -0.485
- UUUGUACGGCACUGUGGCCACGUCCAAA [hsa-mir-497] — higher, 0.0542
- UUUGUAUUGUGGUUCAGUACCAUGCAAA [hsa-mir-6507] — higher, -0.933
- UUUGUCAUUAAAGUAAUGCAAA [hsa-mir-548m] — higher, -0.856
- UUUGUCAUUACUUUAAUUACUUUACGUUUCAUUAAUGACAAA [hsa-mir-548h-4] — higher, -1.46
- UUUGUCAUUUAAAAGUAAUGGCAAA [hsa-mir-548ae-2] — higher, -0.902
- UUUGUGGAUUUUGAAAAGGUGCAGG [hsa-mir-15a] — higher, 0.28
- UUUGUGGGGCGAGGAGGGACCUGUACUAGCCAUGGUUCUGAUCACAUAUG [hsa-mir-6834] — higher, 2.89
- UUUGUGUAAGGAAUUUUGUGGUCACAAA [hsa-mir-10a] — higher, -0.825
- UUUGUUGAAAGAAUAAAUAAACCAACAAG [hsa-mir-1264] — higher, -0.365
- UUUUAAUUUUUUUAAAA [hsa-mir-3606] — higher, -1.39
- UUUUAGAA [hsa-mir-4443] — higher, -1.35
- UUUUAUCAUUACUUUUAAUGGCAAAA [hsa-mir-548f-2] — higher, -0.404
- UUUUCAGUUCCUGAGAUC [hsa-mir-4287] — higher, -0.441
- UUUUCAUGACAACCCUAUAUGGGAAAAUGUUGUGAAAA [hsa-mir-3646] — lower, -1.78
- UUUUCCCUUUCUCUUGCCCUGAAA [hsa-mir-4509-1_4509-3_4509-2] — higher, -0.219
- UUUUCCUGAGAAUAAGAGAAGGAAGG [hsa-mir-4455] — higher, 0.75
- UUUUCGCUUUAUAUGUGACGAAAC [hsa-mir-495] — higher, -0.531
- UUUUCUGGGA [hsa-mir-4456] — higher, -0.251
- UUUUCUGUCCUGUCCACACAGAAAA [hsa-mir-1537] — higher, -0.902
- UUUUCUUAAAUUGUAUAAAGAGAAAU [hsa-mir-944] — higher, -0.622
- UUUUGAAAGUAACUUGGCGAAA [hsa-mir-548ad] — higher, -0.299
- UUUUGACAUUACUUUCAAAGACAAAA [hsa-mir-548f-1] — higher, -1.23
- UUUUGCAAUUUUUUAAUGACAAAA [hsa-mir-548t] — higher, -0.704
- UUUUGCAGUUGAAAGUAAUGGCAAAG [hsa-mir-548ao] — higher, 0.259
- UUUUGCAGUUUUUUUAAGUAAUUGCAAAA [hsa-mir-548f-3] — higher, -0.904
- UUUUGCAUUUAAAGUAAUGGCCAAA [hsa-mir-548ay] — higher, -0.173
- UUUUGCCAUUAAAAGUAAUGACAAAA [hsa-mir-548f-4] — higher, -1.66
- UUUUGCCAUUACUUUCAAUGGCAAAA [hsa-mir-548aa-2] — higher, -1.08
- UUUUGCCAUUACUUUUACAGGCAAAA [hsa-mir-548aa-1] — higher, -1.28
- UUUUGCUAUUACUUUUAAAGGCAAAA [hsa-mir-548e] — higher, -0.684
- UUUUGCUGUUACUUUUAAUGGCAAAA [hsa-mir-548az] — higher, -1.3
- UUUUGCUUGUGUCUCUCCGCUCUGAGCAAUC [hsa-mir-96] — higher, 0.411
- UUUUGUCUGA [hsa-mir-553] — higher, -0.491
- UUUUUCUUUACUUUUAAUGGCAAA [hsa-mir-548u] — higher, -1.2
- UUUUUGCAUUACGUUCUAUGGCAAAA [hsa-mir-548g] — higher, -0.0583
- UUUUUGUUUUUGAGACAGAGU [hsa-mir-4472-2] — higher, -0.803
- UUUUUUUCCAAUGAAAAUAACGAAACCUGUUAUUUCCCAUUGAGGGGGAAAAA [hsa-mir-4484] — higher, -0.641
- UUUUUUUCGCUUUAUUUGUGACGAAAC [hsa-mir-543] — higher, -0.882

Test system: TO-N3 (biotin conjugate)
Assay: as above
Conditions: RNA library: Library-2
How it was run: as §1

Point of comparison: “UUUGCCAUUAAAAGUAAUGCGGCCAA [hsa-mir-548o-2]”, “pull-down binding Z-score” value -0.0582. Against it:
- UUUCUGUUGUCUGAAAGAAGAGAAA [hsa-mir-526b_518a-1] — lower, -0.697
- UUUCUGUUGUCUGAAAGCAGA [hsa-mir-515-1_515-2] — higher, 0.262
- UUUCUUAAAUUUUAUAUAUUGGAA [hsa-mir-1284] — lower, -0.124
- UUUGCAUCUGGACGACGAAU [hsa-mir-409] — higher, -0.021
- UUUGCCAAUAAAAGUAAUGACAAA [hsa-mir-548ah] — higher, 0.226
- UUUGCCAGAGCUACAAAGGCAAA [hsa-mir-561] — lower, -0.845
- UUUGCCAUUAAAAGUAACGACAAA [hsa-mir-548a-1] — lower, -1.11
- UUUGCCAUUAAAAGUAAUGGUAAA [hsa-mir-548x-2] — lower, -1.29
- UUUGCCAUUACUUUCAGUAGCAAA [hsa-mir-548c] — lower, -0.379
- UUUGCCAUUACUUUCAGUGGCAAA [hsa-mir-548aq] — lower, -1.48
- UUUGCCAUUAUAAUGGCAAA [hsa-mir-548ae-1] — lower, -1.37
- UUUGCCAUUGAAAGUAAUGGCAAA [hsa-mir-548d-2] — lower, -1.12
- UUUGCCGUCGAAAAUAAUGGCAAA [hsa-mir-548am] — lower, -0.71
- UUUGCCGUUAAAAGUAAUGGCA [hsa-mir-548a-2] — lower, -0.368
- UUUGCCGUUGCUUUUAAUGGUAAA [hsa-mir-548as] — lower, -0.571
